How the values were obtained:
[1] = target: ADDoCoV (ADDomer-COVID-19 vaccine) nanoparticle (human adenovirus serotype Ad3 | …, UniProt P0DTC2)
[2] = target: SARS-CoV-2 S receptor binding domain, Ancestral (SARS-CoV-2, Ancestral strain, UniProt P0DTC2)

B1: ADAH14 (VHH)
VHH: QVQLQESGGGLVQAGGSLRLSCAASGSYFFHALMGWFRQAPVKEREFVASITAVPGATYYRRCTDSVKGRFTISRDNAKNTVYLQMNSLKPEDTAVYYCALATHSNRHTPITYWGQGTQVTVSS
B1: binds [1]; binds [2].

B2: ADAH15 (VHH)
VHH: QVQLQESGGGLVQAGGSLRLSCAASGTTYLAANMGWFRQAPGKEREFVAAITFFHNPTVYYADSVKGRFTISRDNAKNTVYLQMNSLKPEDTAVYYCAATVLVRDRIHFSHSIGIRYWGQGTQVTVSS
B2: binds [1]; binds [2].

From paper PMC10702856 (Antibody Therapeutics, 2023)
